Data set [1] addresses T1, EHD2 (Mus musculus, UniProt Q8BH64).
T1 construct: Mouse EHD2 full-length protein and all mutants were expressed as N-terminal His-fusions followed by a PreScission cleavage site; His (N, cleaved yes); made in house; host or cells: Escherichia coli BL21 DE3 Rosetta
T1 sequence (Q8BH64 1-543): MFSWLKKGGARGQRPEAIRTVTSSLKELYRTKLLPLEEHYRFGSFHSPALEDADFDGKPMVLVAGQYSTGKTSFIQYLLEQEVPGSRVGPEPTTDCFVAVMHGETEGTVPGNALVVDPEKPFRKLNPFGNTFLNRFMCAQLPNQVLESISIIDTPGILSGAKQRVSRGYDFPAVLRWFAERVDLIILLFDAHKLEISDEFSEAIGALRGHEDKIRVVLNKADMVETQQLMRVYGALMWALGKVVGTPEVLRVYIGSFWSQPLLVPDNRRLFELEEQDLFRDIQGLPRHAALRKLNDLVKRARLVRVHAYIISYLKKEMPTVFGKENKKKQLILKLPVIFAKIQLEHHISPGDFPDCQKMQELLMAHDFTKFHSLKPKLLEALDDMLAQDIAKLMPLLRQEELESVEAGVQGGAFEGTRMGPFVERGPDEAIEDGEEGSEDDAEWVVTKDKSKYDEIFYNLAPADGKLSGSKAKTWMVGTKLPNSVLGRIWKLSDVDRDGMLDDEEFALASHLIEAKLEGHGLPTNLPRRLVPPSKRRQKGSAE
Put plainly: ITC nucleotide binding to EHD2. The following applies: ITC at 10° C. As for the experimental part:
(§1) Amino acid numbering corresponds to mouse EHD2. b, EHD2 binds to adenine nucleotides, as determined by ITC. For clarity, ΔΔH=ΔHn−ΔH1 is plotted. […] Images were acquired close to the basal cell surface. f, Nucleotide hydrolysis was measured by HPLC in the absence (empty symbols) or presence of Folch liposomes (filled symbols). Data represent mean and standard deviation for two (intrinisic reactions) or three (stimulated reactions) independent experiments.
(§2) ITC measurements were performed at 10° C. in 20 mM HEPES (pH 7.5), 300 mM NaCl, 2 mM MgCl2. Liposome binding assays were performed as described previously (www.endocytosis.org). Multiple turnover ATPase assays were performed in 20 mM HEPES (pH 7.5), 135 mM NaCl, 15 mM KCl, 1 mM MgCl2 at 30° C. with 10 μM EHD2 (or mutants) as enzyme and 100 μM ATP as substrate, in the absence or presence of 1 mg/ml Folch liposomes (Sigma-Aldrich).
(§3) Mouse full-length EHD2 was expressed in bacteria and purified to homogeneity (FIG. 5). The purified protein was nucleotide-free as judged by HPLC analysis. […] It was previously reported that EHDs—despite having a predicted G-domain—bind to adenine nucleotides^15. […] We still refer to this domain as a G-domain because the sequence and fold (see below) are clearly similar to other G-domains. […] Using synthetic liposomes containing various different phosphatidyl-inositols (PI) (FIG. 1c) we observed best binding to liposomes containing PI(4,5)bisphosphate (PIP2).

The target of a further data set is T2, EH-domain of EHD2 (Mus musculus, UniProt Q8BH64).
T2 sequence (Q8BH64 449-537 limits assumed): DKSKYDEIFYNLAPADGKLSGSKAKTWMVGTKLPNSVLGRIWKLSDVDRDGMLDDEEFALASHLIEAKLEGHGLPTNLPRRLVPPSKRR
Kind of data set: ITC peptide binding to the EH-domain of EHD2. The settings on record: ITC at 10° C.; for affinity of xPF peptide to the EH-domain of EHD2 by ITC: 100 mM HEPES (pH 7.5), 50 mM NaCl, 200 μM CaCl2. From the text: EH-domains are low affinity protein-protein interactors normally found in endocytic multi-subunit assemblies. A likely purpose of the EH-domain is in recruitment of the protein to sites of action. […] An alternative explanation for the function of the EH-domain in the oligomer can be proposed based on the presence of two conserved PF motifs (NPF and IPF) in a disordered surface loop at the side of the G-domain between β-sheet 2A and 2B. In our proposed oligomer, the EH-domains from one dimer are close to the side-site NPF motif of the adjacent dimer (FIG. 4c) and thus after oligomerisation on membranes they may switch position from the top site position in the dimer to the side site in the opposing dimer. […] A dominant negative mutant in C. elegans Rme1 is found in the linker between the EH-domain and the helical domain^3 pointing to the importance of this flexible linker.

The target of data set [2] is T1, EHD2. Kind of data set: Multiple turnover ATPase assay (nucleotide hydrolysis by HPLC) with or without Folch liposomes. The class given is biochemical. As for the experimental part: as §1, §2
Reactions were started by the addition of the protein to the final reaction mix and nucleotide hydrolysis was followed using standard HPLC measurement^27. Initial rates were determined by applying a linear fit to data points up to 40% nucleotide hydrolysis. For electron microscopic studies, 2.5 μM EHD2 in 20 mM HEPES (pH 7.5), 150 mM NaCl, 1 mM MgCl2 was incubated for 15 min at 25° C. in the presence of 1 mM nucleotide and 0.05 mg/ml (final concentration) of the indicated liposomes. Samples were spotted on carbon-coated copper grids (Canemco and Marivac) and negatively stained with 2% uranyl acetate.
We next monitored the effect of membrane-binding on the ATPase activity of. EHD2 under multiple-turnover conditions (10-fold excess of ATP over EHD2), in the presence and absence of Folch liposoines (FIG. 1f). The intrinsic/background ATPase activity is extremely slow (kobs=0.7 h^−1) but is stimulated 8-fold in the presence of Folch or PS liposomes (kobs=5.6 h^−1).

A short description of data set [3]: Liposome co-sedimentation (membrane binding) assay. The following applies: Folch / PS liposomes. As for the experimental part: as §1
(§4) Nucleotide hydrolysis was measured as described in FIG. 1f. In vitro tubulation activity of PS liposomes was analysed as described in FIG. 1d. f, EGFP-tagged mutants were over-expressed in HeLa cells. […] For each construct, three independent experiments with ≈50 cells/experiments were analysed.
as §2, §3

The next data set has as its system HeLa cells. Put plainly: Over-expression of EGFP-tagged EHD2 and mutants in HeLa cells (confocal / live imaging). The class given is cell-based. The following applies: 24 h after transfection, fixed. As for the experimental part: as §1, §4
Ultracentrifugation. Sedimentation velocity experiments were performed in a Beckman Optima XLA ultracentrifuge, using an An-60Ti rotor. Centrifugation was at 50,000 rev×min and 5° C. at an EHD2 concentration of 15 μM, with scans as fast as possible (˜1.5 min intervals). The data were analysed using DCDT+ v.2^44,45, with the partial specific volume for the protein (from the amino acid composition) and solvent density and viscosity calculated using Sednterp^46. Selected scans (at equal, ˜15 min intervals), and of g(s20,w) (the amount of material sedimenting between s20,w and (s20,w+δs)) and also the residuals for fitting the data with DCDT+, were plotted with the program profit v.5.6.7 (Quantum soft, Switzerland). Cell biology. N-terminal EGFP-tagged EHD2 and all mutants were over-expressed in HeLa cells from the pEGFP-C3 vector (Clontech). HeLa cells were grown as per ECACC guidelines with 10% fetal bovine serum and transfected using Genejuice (Novagen) for transient protein expression. 24 h after transfection, cells were fixed for 10 min at 37° C. in 3% paraformaldehyde and mounted. All confocal images were taken sequentially using a BioRad Radiance system and LaserSharp software (Biorad). For real-time microscopy, transfected cells on glass-bottom Petri dishes (WillCo Wells BV, Amsterdam) were washed with 25 mM HEPES (pH 7.5), 125 mM NaCl, 5 mM KCl, 10 mM D-glucose, 1 mM MgCl2, 2 mM CaCl), and epifluorescence images were taken using an Olympus IX70 microscope (Southhall, UK) and Argon laser (Melles Griot, Carlsbad, Calif.) with a Princeton instruments (Trenton, N.J.) cooled I-PentaMAX camera with MetaMorph software (Universal imaging).
EHD2 wild-type was over-expressed in HeLa cells for 24 h and imaged by EPI-fluorescence for approximately 30 min.
EHD2 T94A was over-expressed in HeLa cells for 24 h and imaged by EPI-fluorescence for approximately 30 min. […] EHD2 I157Q was over-expressed in HeLa cells for 24 h and imaged by EPI-fluorescence for approximately 30 min.

Substitutions are numbered along the chain they refer to. Names may count otherwise. “And” between values parts separate entries of the source, which are not always exact repeats. Identical values can stand only once. “Also recorded” adds a separate entry of the source. Ends that are not written are not given here.

`Nc1nc2c(ncn2[C@@H]2O[C@H](COP(=O)(O)OP(=O)(O)OP(O)(O)=S)[C@@H](O)[C@H]2O)c(=O)[nH]1` [GTP-γ-S]: the “affinity to EHD2 determined by ITC” value at EHD2 [1] (20 mM HEPES (pH 7.5), 300 mM NaCl, 2 mM MgCl2) was “No binding signal was observed”.
As for KLNPFGNT [KLNPFGNT], the “n (fitted ITC value), peptide binding to EH-domain” value at EH-domain of EHD2 was 1.33.
As for “RMGPFVER [peptide from EHD2 linker containing GPF motif]”, the “affinity of xPF peptide to the EH-domain of EHD2 by ITC” value was “did not (show detectable binding” on EH-domain of EHD2 and “not the top site GPF peptide, bound with a measurable affinity” at EH-domain of EHD2 (listed as top site GPF peptide).
On to `Nc1ncnc2c1ncn2[C@@H]1O[C@H](COP(=O)(O)OP(=O)(O)O)[C@@H](O)[C@H]1O` [ADP], for which the “n (fitted ITC value), nucleotide binding to EHD2” value on EHD2 [1] is 0.9. The Kd at EHD2 [1] (20 mM HEPES (pH 7.5), 300 mM NaCl, 2 mM MgCl2, read-out: affinity to EHD2 determined by ITC) was 50 µM and ~50 µM.
For “PEKPFRKL [peptide from EHD2 containing KPF motif]”, the “affinity of xPF peptide to the EH-domain of EHD2 by ITC” value on EH-domain of EHD2 was “did not (show detectable binding”.

B1: EHD2 R167E (protein)
chain: T1 sequence (Q8BH64 1-543) with R167E
B1: in the data set with Q8BH64, the “assembly-stimulated ATP hydrolysis” value is given as “all mutants showed reduced or completely abolished assembly-stimulated ATP hydrolysis”; the “nucleotide hydrolysis (basal and Folch-stimulated ATPase)” value was “mutant R167E (in Switch II) showed an increased basal ATPase activity which was not further stimulated by Folch liposomes”. Further, in the data set with EHD2 [2] (absence of membranes), the “intrinsic/basal ATPase activity (in words)” value was “increased basal ATPase activity”. For the same molecule, the “membrane-stimulated ATPase activity (in words)” value in the data set with EHD2 [2] (presence of Folch liposomes) is reported as “not further stimulated by Folch liposomes”.

B2: F322A: EHD2 membrane-binding site mutant (protein, UniProt Q8BH64 1-543, looked up, variant F322A)
EH domain-containing protein 2: T1 sequence (Q8BH64 1-543) with F322A
With B2, the “binding to liposomes (co-sedimentation)” value in data set [3] was “bound less to liposomes”. Further, the “distribution of EGFP-tagged protein over-expressed in HeLa cells” value with HeLa cells was “completely cytoplasmic distribution”. The “kobs stimulated ATPase reaction” value with EHD2 [2] (10 μM protein, 100 μM ATP, 30° C., presence of 1 mg/ml Folch (or PS) liposomes) turned out to be 3.0 h⁻¹. In the data set with EHD2 [2] (presence of Folch liposomes), the “decrease in the stimulated ATPase rate versus wt” value was 40% and the “membrane-stimulated ATPase activity (in words)” value is given as “reduced ATPase stimulation”.

B3: EHD2 D198R (protein)
chain: T1 sequence (Q8BH64 1-543) with D198R
In the case of B3, the “assembly-stimulated ATP hydrolysis” value with Q8BH64 is “all mutants showed reduced or completely abolished assembly-stimulated ATP hydrolysis”.

B4: T72A: EHD2 mutant in the phosphate binding (P-)loop, nucleotide-free (protein, UniProt Q8BH64 1-543, looked up, variant T72A)
EH domain-containing protein 2: T1 sequence (Q8BH64 1-543) with T72A
With B4, in data set [3], the “binding to liposomes (co-sedimentation)” value is “bound to Folch liposomes”. The “distribution of EGFP-tagged protein over-expressed in HeLa cells” value in the data set on HeLa cells was “cytoplasmic distribution”. Also, the “membrane-stimulated ATPase activity (in words)” value in the data set with EHD2 [2] (presence of Folch liposomes) is reported as “did not show stimulation of ATP hydrolysis; also recorded: did not show membrane-stimulated ATPase activity”.

(Values after US20120214173A1, “Methods of Identifying Modulators of an Ehd Polypeptide” (priority 2007, published 2012).)
